# Key:
# [1] = molecular target: T1, Recombinant Human DLL4 (delta-like protein 4) (human, UniProt Q9NR61 27-524); assay: ECL binding assay on immobilized DLL4, Fab at 0.04 µM
# T1 construct: Bought recombinant human DLL4 (R&D Systems Cat#1506-D4/CF); also called rHuman DLL4; Delta-like ligand 4
# [2] = molecular target: T2, Recombinant Human DLL4 (R&D Systems Cat#1506-D4/CF) (human, UniProt Q9NR61 27-529); assay: ECL 96-well plate assay (MSD), 0.1 µM Fab, plate coated with 30 µg/mL DLL4
# T2 construct: Bought recombinant protein, coated on the plate; also called delta-like protein 4; rHuman DLL4
# [3] = molecular target: T2, Recombinant Human DLL4 (R&D Systems …); assay: ECL 96-well plate assay (MSD), 0.02 µM Fab, plate coated with 15 µg/mL DLL4
# [4] = molecular target: T3, rHuman EGF R/Fc Chimera, CF (R&D Systems Cat#344-ER) (human, UniProt P00533 25-645); assay: ECL multispot (MSD) binding assay, antigen spotted on plate, Fab 0.04 uM;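 note: purified Fab incubated 1 h at 20 °C on antigen spots, detected via TAG-labelled antibody, ECL read against each well's blank, with signal-to-blank of at least 4 scored as binder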
# T3 construct: Bought recombinant protein; also called epidermal growth factor receptor; Fc part of the bought chimera not given
# [5] = molecular target: T4, rHuman P-Cadherin/Fc Chimera, CF (R&D Systems Cat#861-PC) (human, UniProt P22223 108-654); assay: as above
# T4 construct: Bought recombinant protein; Fc part of the bought chimera not given
# [6] = molecular target: T5, rHuman Erythropoietin R/Fc Chimera, CF (R&D Systems Cat#963-ER) (human, UniProt P19235 25-250); assay: as above
# T5 construct: Bought recombinant protein; also called EPO R; EPO R/Fc; Fc part of the bought chimera not given
# T5 sequence (looked up): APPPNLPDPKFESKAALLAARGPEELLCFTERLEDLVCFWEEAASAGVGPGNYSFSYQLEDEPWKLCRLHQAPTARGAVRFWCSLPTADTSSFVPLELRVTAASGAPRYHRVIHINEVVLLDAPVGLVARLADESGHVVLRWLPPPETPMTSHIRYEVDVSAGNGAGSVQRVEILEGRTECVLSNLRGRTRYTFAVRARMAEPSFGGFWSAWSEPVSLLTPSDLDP
# [7] = molecular target: T6, Recombinant Human DLL4 (R&D Systems Cat#1506-D4/CF) (human, UniProt Q9NR61 27-524); assay: as above
# T6 construct: Bought recombinant protein; also called delta-like protein 4; rHuman DLL4
Binder,Signal/Noise [2],Signal/Noise [3],other results
"Fab VH5-51_IGHD5-18*01>3_IGHJ4*01 Y105A & V3-4_IGLJ1*01 (Fab, V domains shown, Fab with CH1 (Plasmid A, His6 and Flag tags) and lambda CL (Plasmid E)) VH: EVQLVQSGAEVKKPGESLKISCKGSGYSFTSYWIGWVRQMPGKGLEWMGIIYPGDSDTRYSPSFQGQVTISADKSISTAYLQWSSLKASDTAMYYCARRGYSYGADYFDYWGQGTLVTVSS VL: QTVVTQEPSFSVSPGGTVTLTCGLSSGSVSTSYYPSWYQQTPGQAPRTLIYSTNTRSSGVPDRFSGSILGNKAALTITGAQADDESDYYCVLYMGSGISYVFGTGTKVTVL",,,Signal/Noise (0.04 µM) [1]: 9.6
"Fab VH5-51_IGHD5-18*01>3_IGHJ4*01 & V3-4_IGLJ1*01 (Fab, V domains shown, Tested as Fab from E. coli; VH was cloned into Plasmid A, which supplies CH1 and His6 and Flag tags; The lambda VL was cloned into Plasmid E, which supplies lambda CL; also called wildtype; parent Hit Fab VH5-51_IGHD5-18*01_IGHJ4*01 & V3-4_IGLJ1*01) VH: EVQLVQSGAEVKKPGESLKISCKGSGYSFTSYWIGWVRQMPGKGLEWMGIIYPGDSDTRYSPSFQGQVTISADKSISTAYLQWSSLKASDTAMYYCARRGYSYGYDYFDYWGQGTLVTVSS VL: QTVVTQEPSFSVSPGGTVTLTCGLSSGSVSTSYYPSWYQQTPGQAPRTLIYSTNTRSSGVPDRFSGSILGNKAALTITGAQADDESDYYCVLYMGSGISYVFGTGTKVTVL",24,15.2,
"Fab VH5-51_IGHD5-18*01>3_IGHJ4*01 G100A & V3-4_IGLJ1*01 (Fab, V domains shown, Heavy chain CDR3 alanine mutant of the parent Fab; Fab format as for the parent) VH: EVQLVQSGAEVKKPGESLKISCKGSGYSFTSYWIGWVRQMPGKGLEWMGIIYPGDSDTRYSPSFQGQVTISADKSISTAYLQWSSLKASDTAMYYCARRAYSYGYDYFDYWGQGTLVTVSS VL: QTVVTQEPSFSVSPGGTVTLTCGLSSGSVSTSYYPSWYQQTPGQAPRTLIYSTNTRSSGVPDRFSGSILGNKAALTITGAQADDESDYYCVLYMGSGISYVFGTGTKVTVL",53.3,24.2,
"Fab VH5-51_IGHD5-18*01>3_IGHJ4*01 G104A & V3-4_IGLJ1*01 (Fab, V domains shown, Heavy chain CDR3 alanine mutant of the parent Fab; Fab format as for the parent) VH: EVQLVQSGAEVKKPGESLKISCKGSGYSFTSYWIGWVRQMPGKGLEWMGIIYPGDSDTRYSPSFQGQVTISADKSISTAYLQWSSLKASDTAMYYCARRGYSYAYDYFDYWGQGTLVTVSS VL: QTVVTQEPSFSVSPGGTVTLTCGLSSGSVSTSYYPSWYQQTPGQAPRTLIYSTNTRSSGVPDRFSGSILGNKAALTITGAQADDESDYYCVLYMGSGISYVFGTGTKVTVL",41.5,12.5,
"Fab VH5-51_IGHD5-18*01>3_IGHJ4*01 S102A & V3-4_IGLJ1*01 (Fab, V domains shown, Heavy chain CDR3 alanine mutant of the parent Fab; Fab format as for the parent) VH: EVQLVQSGAEVKKPGESLKISCKGSGYSFTSYWIGWVRQMPGKGLEWMGIIYPGDSDTRYSPSFQGQVTISADKSISTAYLQWSSLKASDTAMYYCARRGYAYGYDYFDYWGQGTLVTVSS VL: QTVVTQEPSFSVSPGGTVTLTCGLSSGSVSTSYYPSWYQQTPGQAPRTLIYSTNTRSSGVPDRFSGSILGNKAALTITGAQADDESDYYCVLYMGSGISYVFGTGTKVTVL",4.7,1.8,
"Fab VH5-51_IGHD5-18*01>3_IGHJ4*01 Y103A & V3-4_IGLJ1*01 (Fab, V domains shown, Heavy chain CDR3 alanine mutant of the parent Fab; Fab format as for the parent) VH: EVQLVQSGAEVKKPGESLKISCKGSGYSFTSYWIGWVRQMPGKGLEWMGIIYPGDSDTRYSPSFQGQVTISADKSISTAYLQWSSLKASDTAMYYCARRGYSAGYDYFDYWGQGTLVTVSS VL: QTVVTQEPSFSVSPGGTVTLTCGLSSGSVSTSYYPSWYQQTPGQAPRTLIYSTNTRSSGVPDRFSGSILGNKAALTITGAQADDESDYYCVLYMGSGISYVFGTGTKVTVL",4,1.5,
"Fab VH5-51_IGHD5-18*01>3_IGHJ4*01 Y105A & V3-4_IGLJ1*01 (Fab, V domains shown, Heavy chain CDR3 alanine mutant of the parent Fab; Fab format as for the parent) VH: EVQLVQSGAEVKKPGESLKISCKGSGYSFTSYWIGWVRQMPGKGLEWMGIIYPGDSDTRYSPSFQGQVTISADKSISTAYLQWSSLKASDTAMYYCARRGYSYGADYFDYWGQGTLVTVSS VL: QTVVTQEPSFSVSPGGTVTLTCGLSSGSVSTSYYPSWYQQTPGQAPRTLIYSTNTRSSGVPDRFSGSILGNKAALTITGAQADDESDYYCVLYMGSGISYVFGTGTKVTVL",1,1,
"Fab VH5-51_IGHD5-18*01>3_IGHJ4*01 G100K/G104T (H:KT) & V3-4_IGLJ1*01 L92A (Fab, V domains shown, Fab; Expressed from Plasmid A (CH1, His6 and Flag tags) and Plasmid E (lambda CL); also called KT & L92A) VH: EVQLVQSGAEVKKPGESLKISCKGSGYSFTSYWIGWVRQMPGKGLEWMGIIYPGDSDTRYSPSFQGQVTISADKSISTAYLQWSSLKASDTAMYYCARRKYSYTYDYFDYWGQGTLVTVSS VL: QTVVTQEPSFSVSPGGTVTLTCGLSSGSVSTSYYPSWYQQTPGQAPRTLIYSTNTRSSGVPDRFSGSILGNKAALTITGAQADDESDYYCVAYMGSGISYVFGTGTKVTVL",,,ECL signal [4]: 1010; ECL signal [5]: 326; ECL signal [6]: 582; ECL signal [7]: 11700
